Holding throughout (assay): two-hybrid library CCNG1;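 note: natural log of median RNA to DNA barcode read ratio; higher means stronger binding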
For one assay, the target named is T1, 4H363-bH.
T1 chain: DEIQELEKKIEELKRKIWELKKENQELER

The target in another assay is T2, 4H470-bH.
T2 chain: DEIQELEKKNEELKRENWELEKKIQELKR

The target of the next assay is T3, 4H344-bH.
T3 chain: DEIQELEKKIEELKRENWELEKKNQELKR

The target in the next assay is T4, 4H3907-bH.
T4 chain: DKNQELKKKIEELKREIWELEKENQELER

A further assay concerns the target T5, 4H2745-bH.
T5 chain: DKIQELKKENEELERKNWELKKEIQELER

For the next assay, the target named is T6, 4H3961-bH.
T6 chain: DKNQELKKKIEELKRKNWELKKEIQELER

The target of the next assay is T7, 4H3112-bA.
T7 chain: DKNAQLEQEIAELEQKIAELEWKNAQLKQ

The target in a further assay is T8, 4H1831-bA.
T8 chain: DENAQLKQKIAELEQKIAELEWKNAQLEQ

A further assay has as its target T9, 4H855-bA.
T9 chain: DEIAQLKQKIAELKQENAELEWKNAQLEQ

In a further assay the target is T10, 4H968-bA.
T10 chain: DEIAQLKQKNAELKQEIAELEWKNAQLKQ

Another assay concerns the target T11, 4H2586-bA.
T11 chain: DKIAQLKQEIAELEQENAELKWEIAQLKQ

A further assay has as its target T12, 4H3926-bA.
T12 chain: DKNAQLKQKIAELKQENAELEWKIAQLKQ

Another assay addresses T13, 4H918-bA.
T13 chain: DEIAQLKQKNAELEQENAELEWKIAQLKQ

Another assay has as its target T14, 4H3427-bA.
T14 chain: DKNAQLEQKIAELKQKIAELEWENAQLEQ

A further assay concerns the target T15, 4H754-bA.
T15 chain: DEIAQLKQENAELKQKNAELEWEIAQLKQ

For another assay, the target named is T16, 4H780-bA.
T16 chain: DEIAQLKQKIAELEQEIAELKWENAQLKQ

The target of a further assay is T17, 4H2702-bA.
T17 chain: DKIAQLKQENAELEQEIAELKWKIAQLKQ

The next assay deals with T18, 4H346-bA.
T18 chain: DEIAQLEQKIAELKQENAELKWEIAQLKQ

The target of a further assay is T19, 4H2627-bA.
T19 chain: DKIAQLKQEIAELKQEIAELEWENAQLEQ

For the next assay, the target named is T20, 4H953-bA.
T20 chain: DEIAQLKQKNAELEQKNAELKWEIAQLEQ

Another assay has as its target T21, 4H797-bA.
T21 chain: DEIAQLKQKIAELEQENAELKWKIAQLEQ

A further assay addresses T22, 4H170-bA.
T22 chain: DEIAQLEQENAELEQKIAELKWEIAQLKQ

The next assay has as its target T23, 4H575-bA.
T23 chain: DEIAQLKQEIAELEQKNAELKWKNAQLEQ

The target of the next assay is T24, 4H683-bA.
T24 chain: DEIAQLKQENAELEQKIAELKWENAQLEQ

In another assay the target is T25, 4H3010-bA.
T25 chain: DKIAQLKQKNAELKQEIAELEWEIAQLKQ

The target of another assay is T26, 4H457-bA.
T26 chain: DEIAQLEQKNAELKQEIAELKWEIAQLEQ

The target of a further assay is T27, 4H4073-bA.
T27 chain: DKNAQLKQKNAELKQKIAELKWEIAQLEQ

The target in another assay is T28, 4H2673-bA.
T28 chain: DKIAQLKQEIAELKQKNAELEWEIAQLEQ

In another assay the target is T29, 4H3926-bN.
T29 chain: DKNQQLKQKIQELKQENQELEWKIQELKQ

The next assay concerns the target T30, 4H683-bN.
T30 chain: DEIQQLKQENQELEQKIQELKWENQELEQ

Another assay deals with T31, 4H918-bN.
T31 chain: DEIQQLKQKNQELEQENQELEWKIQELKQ

A further assay concerns the target T32, 4H346-bN.
T32 chain: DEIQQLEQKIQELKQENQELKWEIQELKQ

In the next assay the target is T33, 4H1831-bN.
T33 chain: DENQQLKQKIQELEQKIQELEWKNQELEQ

Another assay concerns the target T34, 4H457-bN.
T34 chain: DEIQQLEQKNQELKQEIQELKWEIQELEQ

The target in the next assay is T35, 4H3010-bN.
T35 chain: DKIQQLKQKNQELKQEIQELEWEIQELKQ

For a further assay, the target named is T36, 4H170-bN.
T36 chain: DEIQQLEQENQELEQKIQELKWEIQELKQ

A further assay concerns the target T37, 4H797-bN.
T37 chain: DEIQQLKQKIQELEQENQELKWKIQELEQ

Another assay concerns the target T38, 4H968-bN.
T38 chain: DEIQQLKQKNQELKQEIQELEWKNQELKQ

The target of another assay is T39, 4H754-bN.
T39 chain: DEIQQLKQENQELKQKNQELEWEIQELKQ

The target of the next assay is T40, 4H575-bN.
T40 chain: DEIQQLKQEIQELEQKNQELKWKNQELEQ

Another assay addresses T41, 4H2702-bN.
T41 chain: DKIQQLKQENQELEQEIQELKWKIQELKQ

In another assay the target is T42, 4H4073-bN.
T42 chain: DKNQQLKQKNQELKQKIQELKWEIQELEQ

The target of a further assay is T43, 4H855-bN.
T43 chain: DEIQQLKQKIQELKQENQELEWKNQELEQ

Another assay has as its target T44, 4H953-bN.
T44 chain: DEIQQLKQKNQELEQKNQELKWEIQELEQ

The target of another assay is T45, 4H3112-bN.
T45 chain: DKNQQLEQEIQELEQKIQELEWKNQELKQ

In another assay the target is T46, 4H3427-bN.
T46 chain: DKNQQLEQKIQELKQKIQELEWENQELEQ

The target in a further assay is T47, 4H2627-bN.
T47 chain: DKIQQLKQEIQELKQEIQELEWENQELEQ

The target of a further assay is T48, 4H2673-bN.
T48 chain: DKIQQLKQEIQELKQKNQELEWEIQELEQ

Another assay concerns the target T49, 4H780-bN.
T49 chain: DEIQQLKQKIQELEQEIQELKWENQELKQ

The next assay deals with T50, 4H2586-bN.
T50 chain: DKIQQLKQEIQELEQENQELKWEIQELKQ

The next assay deals with T51, 4H48-bH.
T51 chain: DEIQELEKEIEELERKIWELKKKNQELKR

The target of the next assay is T52, 4H2944-bH.
T52 chain: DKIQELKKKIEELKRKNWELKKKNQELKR

In another assay the target is T53, 4H491-bH.
T53 chain: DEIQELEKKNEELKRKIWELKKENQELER

The next assay addresses T54, 4H342-bH.
T54 chain: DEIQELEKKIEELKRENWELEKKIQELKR

The target in another assay is T55, P1A-bH.
T55 chain: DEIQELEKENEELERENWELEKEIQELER

Another assay has as its target T56, 4H906-bA.
T56 chain: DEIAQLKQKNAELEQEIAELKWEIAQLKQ

A further assay deals with T57, 4H626-bA.
T57 chain: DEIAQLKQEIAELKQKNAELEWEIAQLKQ

Another assay deals with T58, 4H591-bA.
T58 chain: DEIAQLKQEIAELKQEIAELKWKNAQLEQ

Here are results for five molecules from PMC10397247.

As to DKIQELKKENEELERKNWELKKEIQELER [4H2745-bH], the interaction score in the assay with 4H363-bH was -0.763; with 4H470-bH, 1.22; with 4H344-bH, -0.814; with 4H3907-bH it was -0.566; with 4H2745-bH it was -0.337; in the assay with 4H3961-bH, -0.688.
Regarding DEIAQLEQENAELEQKIAELKWEIAQLKQ [4H170-bA], the interaction score was -0.374 with 4H3112-bA; -1.05 with 4H1831-bA; -0.225 in the assay with 4H855-bA; 2.27 with 4H968-bA; -0.588 in the assay with 4H2586-bA; 1.67 with 4H3926-bA. For the same molecule, the interaction score in the assay with 4H918-bA was 0.927; with 4H3427-bA, 0.122; with 4H754-bA, -0.923; in the assay with 4H780-bA it was -0.413; with 4H2702-bA, 2.21; in the assay with 4H346-bA it was -1.19. In addition, the interaction score in the assay with 4H2627-bA is 1.23; in the assay with 4H953-bA it was 0.253; in the assay with 4H797-bA, -0.00525; in the assay with 4H170-bA it was 0.744; with 4H575-bA it was -0.482; with 4H683-bA, -0.581. In addition, the interaction score with 4H3010-bA is 2.15; with 4H457-bA, 1.56; with 4H4073-bA, 1.89; with 4H2673-bA, 1.01.
For the molecule DEIQQLEQENQELEQKIQELKWEIQELKQ [4H170-bN], the interaction score with 4H3926-bN was 0.153; with 4H683-bN, -0.329; in the assay with 4H918-bN, -0.811; with 4H346-bN, -0.772; in the assay with 4H1831-bN, -1.26; with 4H457-bN, -0.694. Moreover, the interaction score is 2.14 with 4H3010-bN; 0.334 with 4H170-bN; -0.668 in the assay with 4H797-bN; 1.15 with 4H968-bN; -0.104 with 4H754-bN; 0.401 in the assay with 4H575-bN. The interaction score is 1.32 in the assay with 4H2702-bN; 1.61 with 4H4073-bN; 0.202 with 4H855-bN; -1.71 in the assay with 4H953-bN; 0.507 in the assay with 4H3112-bN; -0.458 with 4H3427-bN. Besides, the interaction score is -1.42 in the assay with 4H2627-bN, -0.742 in the assay with 4H2673-bN, -0.283 with 4H780-bN and -1.86 with 4H2586-bN.
As for DKIQELKKKIEELKRKNWELKKKNQELKR [4H2944-bH], the interaction score with 4H48-bH was 0.638; with 4H2944-bH it was -0.179; with 4H491-bH it was -0.773; in the assay with 4H342-bH it was 0.551.
In the case of DEIAQLKQEIAELKQEIAELKWKNAQLEQ [4H591-bA], the interaction score with P1A-bH is 0.0694; in the assay with 4H906-bA, -1.23; with 4H626-bA, -1.82; in the assay with 4H591-bA it was 1.45.
